Experimental data from the DeepSol protein solubility set.

Test: soluble on expression in E. coli; label from the status in PepcDB or PDB records

Sequence	soluble on expression in E. coli
MENSRLMQSMPRTPKFEEEKKTDKDKEKEEKERNGKKTELARAQNKKAQEKDMPRFKQGENQIDTATETYELTSELGQGSFGAVFGVTRKSDKRHFAMKCESVNMKRAILPHEAGVLLALNHLKSPHFLEMVDHGIVNNRFLFVVLKLVGMNLWDMRAHLPDKKYTLTTTLRIAEQTLAGLRDLHRVGFLHRDIKPPNFAIGREEDDTYHTVFLLDFGLCRKIAMKGKDLRTPRKECAFRGTTRYAALAAHDNKEQSRKDDIESWWYMIAEMIVFDIPWKQFRGTDRDNVRGMKWRLRADETYFKFLFRKCCYEQMSAILLYLDQLSYSSIPDYDFVYHHLQAAAIVNNCSAKSPPDWDPKSQHYKGPIYKEREPYIVKSLE	not soluble
SSNQTPYIGSKISLISKLDIRYEGILYTVDTNDSTIALAKVRSFGTEKRPTANPVAARDDVYEYIIFKASDIKDLIVCDTPKMANIGGGLPYDPAIISVSSRSAPASDGAPAASAGSSRAGTPSRNSPLGQIIQNQRPGRGGYQQNFQANRGYNNYRGGFAGGYNNQRGHNNYGVPRVNHREKLKFESDFDFEKANEKFQEVLVDNLEKLNIEDKAEPEVEEKKDAAFYDKKTSFFDNISCESLEKAEGKTGRPDWKKERETNQETFGHNAVRSLNYRRGFGGRGRGGNRGYGGYNNGYQHQHQHRGGYNGGYRQNNGGYRRGGYAPRDNQGNTAAAAEQ	not soluble
MSLFITDKRVKESATALNPSMFQGLYLQDQMLKDPTYLPIYGSSELSRLDEFHPSNYFQVNNEGFTPYLVGKGGSQSLIHSLNFAAHMDQLKGKKIVFIVSPQWFIKRGSDEQHFAPNYSALQGLDLAFNDQIDPEIKKKMMKRMLRFKAVQNDAILSELYKAMVNGQTWKVNALKPAAKVYYSMLEKKDLYYSTTESSGPKRYISQSVKDKSWSELNKLADQSGKRHSGSNDFHIDNPVYKKLKPKVPKLKGKNKGRSYAVSPEYGDFEMMLDILKDAGAEPMFVTIPVNGKWYDYTGFPKKGRTDYYKKVNKQIRAKGFQVADFSGHEYDPYFMKDTIHIGWKGWVYVDKAIDEFYKTGKVTSSEGHHHHHH	not soluble
MGSDKIHHHHHHMDIGHRMKELRIQYGLTQQELADRAELTKGFISQLERNQNSPSVGTLLDIIQCLGMTPAEFFTDSEPEQIVYKANDYFEKIDEEKNSKVEWIIPNAQTRSMEPVRLTLHPGGSSEIYLPQECEEFGYVIKGTVKLCYGGKVHTVKAGESFYFKAGKKHFIENKSSKDAMLIWVSNPPSF	not soluble
SSRTFTEQLNALLELGCETLGSSFGTLSRVHGDEYVFEAVTAPTTADLEAGRTTSIEDLPNCRHVVEHREPLAIRDVEADAPDLADPEWGIVNYIGAPVVVDGAVYGTFCFYGLEPRTAEFTQWDLTFVRLLSDWAGYELERQRHSEQRDALNTAF	not soluble
STVSEAYSPPLFSIAPMMGWTDNHYRTLARLITKHAWLYTEMLAAETIVYQEDNLDSFLAFSPDQHPIVLQIGGRNLENLAKATRLANAYAYDEINFNCGCPSPKVSGRGCFGALLMLDPKFVGEAMSVIAANTNAAVTVKCRIGVDDHDSYNELCDFIHIVSSLSPTKHFIIHSRKALLSGLSPSDNRRIPPLKCVQKVFLCPFA	soluble
MGSDKIHHHHHHMFNLKPELVARLERVLTSVEMLLPRPTAPVDWSVCHAASWRRHSFSGYLEPVRQTDTVTLPELLGIEKQKEVMTNNTLQFLRGLPANNALLWGSRGTGKSSLVKALLNEYAAQGLRIVQVEKEDLIYLSEIFAAVENEPYRFILLCDDLSFEVGELSYKMLKSALDGSVYSAPENVLIYVTSNRRHLIPEYESDNVGWKYVNGELQQSEAMEEKISLSDRFGLWVAFHVFSQDRYLEAVRLCIEREARQRRVEIPWAKEIEREAIQWSHDKSKRCGRTAFQFSRHWVGRYLLGGR	not soluble
MSIFQSFKSVAAAIAVCAGIFTGFSANAQSVDDIVKRGSVKIGVLVGAPPFGSVDAQGNPVGYDADVATLIGKYLGVPVTMVQLTPPSRIPALESGKVDFLVATLAPTPERAKAVMFTNPYSAFQVGIYSHKDTKIEKWEDLKGMTVGVNRGSSVEREFVNREKELGLTILRFDDDATTMQALFSGQVQAIAGPDAQANAAIKLRGDTTTEVKFFFSIQPNSMTVRKDAVDLHQWLNNTIYYIKQNGELDAIARKWVGTPLPVLPTF	not soluble
MKLVNVTNSYKQLVNKQLENTDAYFVKVYSAGNTTAVYSEAAHHVEVLIMNKNRRIRPTEVKEILAKLLKRLPKEAYDPDEISIIELNHVTEVSVPLKVSLMEN	not soluble
MGSDKIHHHHHHMLIQIADLFTPAEAAQIRARLEAADWVDGKVTAGYQSAQVKHNRQLSEQHPLAQELGGLILQRLAANNLFMSAALPRKIFPPLFNRYEGGEAFGYHVDNALRPVPGTAERVRTDLSATLFFSEPDSYDGGELVVDDTYGPRTVKLPAGHMVLYPGTSLHKVTPVTRGARISAFFWLQSLVREDSQRSLLLEMDVAIQRLNQDTPGHASIVQLTGVYHNLLRRWTDV	not soluble
INAGTDLDNPKDLEVSDPTETTLSLRWRRPVAKFDRYRLTYVSPSGKKNEMEIPVDSTSFILRGLDAGTEYTISLVAEKGRHKSKPTTIKGSTVVGSPKGISFSDITENSATVSWTPPRSRVDSYRVSYVPITGGTPNVVTVDGSKTRTKLVKLVPGVDYNVNIISVKGFEESEPISGILKTALDS	soluble
MKIAFLRPGKIGTPANHVYALLDYLREKGAEIREYDLKERDVNDVVKEIEEWKPLFLMDVNATGVIVAERDGKKHILADILGIVHVSVFFEDPLLFFPAFEGVEKPQNYIAFITELKHTDSLTALGIQNISYISPFVDLKQFPESEGEKDIEIAFVGPVVDPQIILNSVSQNYPQEIMPFFIETGEFMFRNPEVHILTAFNYVFGLFNPQMQEQFNKWREQNPSAFMRFLNDITAYTTMRRRMYLLHFLDGMDVKILGDYQGNLFENHEAIKVSSYEQLLKYYSRSNITVYVSPQTYPTGLSVIPLEILYMGSLPLIDFKGAIPGFLKPGEEIETFAPLDRADLEEKIVFYIEENREGINEIVQRGKKAVQERFTVKDRGEFVYNVLSDVKRQYEAAQKGQVN	not soluble
MGHHHHHHSHMACYIYQLPSWVLDDLCRNMDALSEWDWMEFASYVITDLTQLRKIKSMERVQGVSITRELLWWWGMRQATVQQLVDLLCRLELYRAAQIILNWKPAPEIRCPIPAFPDSVK	soluble
MEGFVLAGTSSGVGKTVATLATLTALEDAGYQPQPAKAGPDFIDPSHHEALVDTPSRTLDPWLAGEDGMRRTYWRGTGDICVVEGVMGLYDGTKTSTAAVAEGLDLPVVLVVDAKAGMESVAATALGFAQYADRIGVDIEVAGILAQRAHGGRHADGIRDALPEDLTYFGRIPPMSDLEIPDRHLGLHMGSEAGLDRDALSTAAETIDIERLVETARAPPEVATTERNTGDSPADRRVAVAQDSAFCFIYPSVLERLRSEASVEPFSPVAGDSVPDADAIYLPGGYPELHGESLETGGTLDEIAVRAADGVPVYGECGGLMALSESLTTTDGDTYEMAGVLPADIEMQDRYQALDHVELEARADTVAATSGAHRRGHEFHYSAATLGSDASFAFDMVRGDGIDGEHDGLTEYSTIGTYCHCHGESGAFDRLLAVPSKDILEHHHHHH	not soluble
MGSDKIHHHHHHMHYLPFIRVVMNTADEDAQMERDEWASREVMPITNWGRRPDGSEIVQYDAPMFFSFTEHSLLHQYPHMRAECHWHVDLELTYIIHGHMWYFVNGETVRLDEGQAIFVNSRQLHYGFTKDGSDCEFSCTLLNPAKMCASFEVYDRFIAPLMAENTMPYAVITDDTAPGRRLLATIRQLHAAKFGPLERSERSAEPLPADDMTLTDNTEALTVLSCFYAVVRDILAIAGSHCATSTAPHPRIVTLRKMIDYVQRYYVRPITLKQIASAGSVGRTTCASIFRESLNQSPIEFVNDVRVRAAANLLVTSSLPIATVAKQTGFSSASFFSRTFHRFMGVTPITYRTTHTKRKSEE	not soluble
MAHHHHHHMVTAVASVVFARFLRQRYPTVQRVSQYENLSTSPDAPCFVANRILTMTSSQAGTHADGPHHFCRSLSHRNYDDAHYSGDAVVLDIATELREHHQSLDPDASLAITVEVLEKARVKLPAAFRDGSRPVWRLLLVTRHSTATSPTSASATEALTGPPRVFFPLDVASPTQVATVGVKGGTAATLAEPSSNAYAFLYPEAVDYLHRVFPRLVLLGIDSPSVDLPQAMPPGQHSHGALLRCGIAILENLRYTRLSPLLESPAGNNQRGWISGSMLTVFNATQNYDDARGCSVIFFPEEAL	soluble
MKVLILTVGTTREPLEVALAEHAPQGVVFLASQASHPVAAELVRDYGGSFRHHTLLLEDAESLMEAYQKALLALRKALEWEATAIVADLTGGTKPMAAGLVLALTGRGVVFSYVGGEARDPGTGRVLAGKERLRLLEDPTARLGLKEWAGFTRAWNALNLGMALAELESLLRRDLSPSEARFYGAMKGVVEGLMEWDRFRHREAWERLSVHLPLALAVAEAWGHGAKVRVLKGLEALLPHLKGIVEAGPKPTFLLLQDLLANAERRAALGRFDDALARLYRALELAVEADVHERLGFSLKDPRTWPEGFPEGLRERILKPRGLMDLLDAAFDLDLAFGEQGTLAQRLYGEKNRLQALLQRRHESILAHGTRPVGEEDYTALRDFLMRLDERLRPLPPWPRF	soluble
FYRNHYKITYKRRLSDLFREFYLTSSRTKWQLCITLGVALVMLVSRELGLPRPMWAGFAAMSVMQPFAEDLKQRVKHRLPGTIAGGLLFLLLCRVLPE	not soluble
MAHHHHHHSLRLKEQSLQVTTKTGKESQKKTQTTAKSTITVDIKGAVKHEGVYTLPIDSRINDVIEKAGGFSEKADRKSVNLAQKLQDEAVIYVAAIGENISVIRDSQEGKTSQADKANTKETSVKGKVNLNTATLADLQTISGIGEKKAQDILDYREANGGFKSVDDLKNISGIGDKTFEKLKDLVSVDEG	soluble
MNGELYLKKGLLQLNKKLYDEALATLNKVIELDDDLASLTSAKCILGEYYFIHQNYEKSKEFLSWICDRQDELEEEFDDLLSEEINTASVLMELIEKYKL	not soluble
MSWGTELWDQFDNLEKHTQWGIDILEKYIKFVKERTEIELSYAKQLRNLSKKYQPKKNSKEEEEYKYTSCKAFISNLNEMNDYAGQHEVISENMASQIIVDLARYVQELKQERKSNFHDGRKAQQHIETCWKQLESSKRRFERDCKEADRAQQYFEKMDADINVTKADVEKARQQAQIRHQMAEDSKADYSSILQKFNHEQHEYYHTHIPNIFQKIQEMEERRIVRMGESMKTYAEVDRQVIPIIGKCLDGIVKAAESIDQKNDSQLVIEAYKSGFEPPGDIEFEDYTQPMKRTVSDNSLSNSRGEGKPDLKFGGKSKGKLWPFIKKNKLMSLLTSPHQPPPPPPASASPSAVPNGPQSPKQQKEPLSHRFNEFMTSKPKIHCFRSLKRGLSLKLGATPEDFSNLPPEQRRKKLQQKVDELNKEIQKEMDQRDAITKMKDVYLKNPQMGDPASLDHKLAEVSQNIEKLRVETQKFEAWLAEVEGRLPARSEQARRQSGLYDSQNPPTVNNCAQDRESPDGSYTEEQSQESEMKVLATDFDDEFDDEEPLPAIGTCKALYTFEGQNEGTISVVEGETLYVIEEDKGDGWTRIRRNEDEEGYVPTSYVEVCLDKNAKDS	soluble
MGHHHHHHSHPSIPNPFPELCCSPFTSVLSADLFPKANSRKKQVIKVYSEDETSRALDVPSDITARDVCQLLILKNHYIDDHSWTLFEHLPHIGVERTIEDHELVIEVLSNWGIEEENKLYFRKNYAKYEFFKNP	soluble
MQYKLILNGKTLKGETTTEAVDAATAEKVFKQYANDNGVDGEWTYDDATKTFTVTEGSMAGGAWGRLACYLEFLKKEELKEFQLLLANKAHSRSSSGETPAQPEKTSGMEVASYLVAQYGEQRAWDLALHTWEQMGLRSLCAQAQEGAGHSLEHHHHHH	soluble
